In the Immune Epitope Database (IEDB):
pKd: −log10 of the molar value.

Experiments:
Experiment in all cases: IEDB peptide-MHC binding, purified MHC/competitive/radioactivity; filed as Kd, often an IC50 or EC50 that approximates it; ≥ and ≤ were set here for values at or beyond the usual limits of such assays
HLA-A*02:02 = target: HLA-A*02:02
HLA-A*02:03 = target: HLA-A*02:03
HLA-A*02:06 = target: HLA-A*02:06
HLA-A*03:01 = target: HLA-A*03:01
HLA-A*11:01 = target: HLA-A*11:01
HLA-A*31:01 = target: HLA-A*31:01
HLA-A*33:01 = target: HLA-A*33:01
HLA-A*68:01 = target: HLA-A*68:01
[1] = source organism: Vaccinia virus WR
[2] = source organism: Mammarenavirus machupoense
[3] = source organism: SARS coronavirus Tor2
[4] = source organism: Lymphocytic choriomeningitis virus (strain Traub)
[5] = source organism: Vaccinia virus Copenhagen
[6] = source organism: Dengue virus 2 Jamaica/1409/1983

Row | Sequence | pKd (HLA-A*03:01; [1]) | pKd (HLA-A*11:01; [1]) | pKd (HLA-A*31:01; [1]) | pKd (HLA-A*33:01; [1]) | pKd (HLA-A*68:01; [1]) | also measured
1 | SIRCVKYLL |  |  |  |  |  | pKd (HLA-A*02:02; [1]): 6.97; pKd (HLA-A*02:03; [1]): 7.25; pKd (HLA-A*02:06; [1]): 5.54
2 | MIYDLNAVTT |  |  |  |  |  | pKd (HLA-A*02:02; [1]): 6.05; pKd (HLA-A*02:03; [1]): 6.32; pKd (HLA-A*02:06; [1]): 6.37
3 | SISSVLTILY | 6.69 | 6.97 | 5.03 | 5.65 | 6.04 | 
4 | FIISTLNKI |  |  |  |  |  | pKd (HLA-A*02:02; [1]): 8.78; pKd (HLA-A*02:03; [1]): 9.38; pKd (HLA-A*02:06; [1]): 8.23
5 | LMAFANQIHH |  |  |  |  |  | pKd (HLA-A*03:01; [2]): 6.03; pKd (HLA-A*11:01; [2]): 4.82; pKd (HLA-A*31:01; [2]): ≤ 4.65; pKd (HLA-A*33:01; [2]): ≤ 4.15; pKd (HLA-A*68:01; [2]): ≤ 4.33
6 | ILDNLRCHSA |  |  |  |  |  | pKd (HLA-A*02:02; [1]): 6.01; pKd (HLA-A*02:03; [1]): 7.16; pKd (HLA-A*02:06; [1]): 6.53
7 | STSAFIDTIK |  |  |  |  |  | pKd (HLA-A*03:01; [3]): 5.96; pKd (HLA-A*11:01; [3]): 7.81; pKd (HLA-A*31:01; [3]): 5.06; pKd (HLA-A*33:01; [3]): ≤ 4.33; pKd (HLA-A*68:01; [3]): 7.59
8 | QTIASKKDK | 6.50 | 6.12 | 6.23 | ≤ 4.11 | 6.58 | 
9 | LSIVVDINK | 5.29 | 7.62 | 5.38 | ≤ 4.11 | 7.82 | 
10 | NACDKHNKT |  |  |  |  |  | pKd (HLA-A*02:02; [1]): 4.75; pKd (HLA-A*02:03; [1]): 5.03; pKd (HLA-A*02:06; [1]): 4.73
11 | HIKTIAVSVY | 6.59 | 5.08 | 6.04 | 4.86 | 5.24 | 
12 | YVIPDELIDV |  |  |  |  |  | pKd (HLA-A*02:02; [1]): 7.74; pKd (HLA-A*02:03; [1]): 7.86; pKd (HLA-A*02:06; [1]): 7.91
13 | FLLFLVLIML |  |  |  |  |  | pKd (HLA-A*02:02; [3]): 5.80; pKd (HLA-A*02:03; [3]): 5.86; pKd (HLA-A*02:06; [3]): 5.53
14 | VILKDPRIA |  |  |  |  |  | pKd (HLA-A*02:02; [1]): 4.97; pKd (HLA-A*02:03; [1]): 6.22; pKd (HLA-A*02:06; [1]): 6.50
15 | YALINLVQY | ≤ 4.11 | ≤ 4.11 | ≤ 4.69 | ≤ 4.11 | ≤ 4.29 | 
16 | MSHLKVALY | 6.49 | 5.77 | 6.15 | 4.74 | 6.83 | 
17 | IVQMLSDTLK |  |  |  |  |  | pKd (HLA-A*03:01; [3]): 6.53; pKd (HLA-A*11:01; [3]): 7.19; pKd (HLA-A*31:01; [3]): 5.42; pKd (HLA-A*33:01; [3]): ≤ 4.65; pKd (HLA-A*68:01; [3]): 5.93
18 | LITNTKSDNI |  |  |  |  |  | pKd (HLA-A*02:02; [1]): 5.65; pKd (HLA-A*02:03; [1]): 5.51; pKd (HLA-A*02:06; [1]): 4.73
19 | DTQMRTPLHK | 5.38 | 7.11 | ≤ 4.28 | 4.90 | 5.83 | 

Row | Sequence | pKd (HLA-A*03:01; [1]) | pKd (HLA-A*11:01; [1]) | pKd (HLA-A*31:01; [1]) | pKd (HLA-A*33:01; [1]) | pKd (HLA-A*68:01; [1]) | also measured
20 | LIANIFTPLV |  |  |  |  |  | pKd (HLA-A*02:02; [3]): 9.40; pKd (HLA-A*02:03; [3]): 7.87; pKd (HLA-A*02:06; [3]): 7.80
21 | HMVRCCKVY | 6.40 | ≤ 4.40 | 4.97 | ≤ 4.34 | 6.11 | 
22 | EIKAEMQLKI |  |  |  |  |  | pKd (HLA-A*02:02; [1]): 4.77; pKd (HLA-A*02:03; [1]): 5.32; pKd (HLA-A*02:06; [1]): 4.84
23 | KASTISWMM |  |  |  |  |  | pKd (HLA-A*02:02; [1]): 6.37; pKd (HLA-A*02:03; [1]): 6.25; pKd (HLA-A*02:06; [1]): 6.10
24 | ISRDELWAR | ≤ 4.11 | ≤ 4.65 | 7.32 | 8.77 | 6.02 | 
25 | HTSVSAKQLR | 5.60 | 6.56 | 6.79 | 5.94 | 7.79 | 
26 | PLPCQLMYAL |  |  |  |  |  | pKd (HLA-A*02:02; [1]): 6.79; pKd (HLA-A*02:03; [1]): 5.06; pKd (HLA-A*02:06; [1]): 5.01
27 | IFPANINDK | 5.65 | 5.96 | 5.45 | 4.90 | 5.92 | 
28 | SLLSLREVK |  |  |  |  |  | pKd (HLA-A*03:01; [3]): 6.60; pKd (HLA-A*11:01; [3]): 7.67; pKd (HLA-A*31:01; [3]): 6.73; pKd (HLA-A*33:01; [3]): 5.09; pKd (HLA-A*68:01; [3]): 5.92
29 | LSKIPYLRNY | 5.16 | 5.58 | 6.49 | 5.04 | 5.02 | 
30 | ILFMEMFFDY | 7.50 | 6.92 | 5.26 | ≤ 4.19 | 6.07 | 
31 | RMLDTSEKY | 5.30 | 5.01 | ≤ 4.18 | ≤ 4.17 | ≤ 4.11 | 
32 | KCHDHYLCR |  |  |  |  |  | pKd (HLA-A*03:01; [4]): 5.12; pKd (HLA-A*11:01; [4]): 5.49; pKd (HLA-A*31:01; [4]): 6.96; pKd (HLA-A*33:01; [4]): 5.87; pKd (HLA-A*68:01; [4]): ≤ 4.32
33 | RSLQTIASKK | 7.30 | 7.65 | 6.74 | ≤ 4.15 | 5.93 | 
34 | STSPTRTWK |  |  |  |  |  | pKd (HLA-A*03:01; [5]): 8.17; pKd (HLA-A*11:01; [5]): 9.10; pKd (HLA-A*31:01; [5]): 7.44; pKd (HLA-A*33:01; [5]): 5.19; pKd (HLA-A*68:01; [5]): 8.23
35 | TMLFTMLRK |  |  |  |  |  | pKd (HLA-A*03:01; [3]): 8.13; pKd (HLA-A*11:01; [3]): 7.70; pKd (HLA-A*31:01; [3]): 6.05; pKd (HLA-A*33:01; [3]): 4.88; pKd (HLA-A*68:01; [3]): 5.80
36 | TTFVTPMLR |  |  |  |  |  | pKd (HLA-A*03:01; [6]): 6.99; pKd (HLA-A*11:01; [6]): 7.10; pKd (HLA-A*31:01; [6]): 7.78; pKd (HLA-A*33:01; [6]): 8.25; pKd (HLA-A*68:01; [6]): 8.42
37 | YQSFLFWFLK | 7.69 | 9.15 | 7.74 | 5.40 | 8.08 | 
